This is an account of results in publication PMC3981788, “Allele-specific Characterization of Alanine: Glyoxylate Aminotransferase Variants Associated with Primary Hyperoxaluria” (PLoS ONE, 2014).

Usually stoichiometry N stands for the number of molecules, sites or subunits per partner or assembly.

This data set concerns the molecule itself. Description: SEC; data not shown; 10 uM AGTmi E274D with 100 uM PLP, Sephacryl S-300 10/600 column, 100 mM potassium phosphate buffer pH 7.4, elution volume compared with molecular weight standards. A general note: Size exclusion chromatography separates by hydrodynamic size, large species first.

B1: alanine: glyoxylate aminotransferase, minor allele variant, E274D (enzyme, human)
chain: MASHKLLVTPLKALLKPLSIPNQLLLGPGPSNLPPRIMAAGGLQMIGSMSKDMYQIMDEIKEGIQYVFQTRNPLTLVISGSGHCALEAALVNVLEPGDSFLVGANGIWGQRAVDIGERIGARVHPMTKDPGGHYTLQEVEEGLAQHKPVLLFLTHGESSTGVLQPLDGFGELCHRYKCLLLVDSVASLGGTPLYMDRQGIDILYSGSQKALNAPPGTSLISFSDKAKKKMYSRKTKPFSFYLDIKWLANFWGCDDQPRMYHHTIPVISLYSLRDSLALIAEQGLENSWRQHREAAAYLHGRLQALGLQLFVKDPALRLPTVTTVAVPAGYDWRDIVSYVMDHFDIEIMGGLGPSTGKVLRIGLLGCNATRENVDRVTEALRAALQHCPKKKL
notes: alanine: glyoxylate aminotransferase (AGT), human, minor allele (P11L, I340M) with the PH1-associated mutation E274D; SEC was run in the presence of 100 uM PLP (holo form); E274D was found in patients on the minor allele; also called AGTmi E274D; AGTmi^E274D; source: bacteria (pET30a), purified
As to B1, the “stoichiometry N” value turned out to be 2.
